Experimental data as given in the supplement of paper PMC10567573.

B1: INTS3 (parent)
chain: DLNSKGKKREFRFHPIKETVVEEP

Variants of: B1
Experiment: protein stability index of a GFP-peptide fusion (GPS, HEK-293T) (PSI 1-6); higher = more stable
Conditions: c terminus: a fixed tail appended
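Further: lentivirally expressed fusions sorted by FACS into six bins by GFP to DsRed ratio, PSI derived from sequencing read proportions per bin multiplied by bin number.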

Protein stability index, by site and new letter:
H14: E 4.13, F 3.34, G 4.02, I 3.57, K 3.91, L 4.01, M 3.53, N 3.84, P 4.35, Q 3.78, R 3.88, S 3.89, T 3.7, V 2.73, W 3.44, Y 3.74
P15: A 2.96, C 2.54, D 3.57, E 3.2, F 2.44, G 3.15, H 3.09, I 2.65, K 3.18, L 2.82, M 2.29, N 3.65, Q 2.6, R 2.9, S 2.37, T 2.96, V 3.25, W 2.28, Y 2.74
I16: A 2.06, C 1.84, D 3.02, E 2.96, F 1.88, G 2.29, H 2.31, K 2.21, L 2.24, M 2.79, N 3.04, P 2.28, Q 2.34, R 1.77, S 1.99, T 2.12, V 2.71, W 2.12, Y 2.36
K17: A 2.5, C 2.67, D 3.93, E 3.48, F 2.05, G 2.91, H 2.31, I 1.94, L 3.26, M 2.69, N 2.6, P 1.98, Q 3.01, R 1.69, S 3.25, T 2.77, V 2.69, W 1.8, Y 2
E18: A 2.42, C 2.48, D 2.68, F 2.1, G 2.1, H 2.13, I 1.96, K 1.79, L 2.83, M 2.28, N 1.63, P 2.19, Q 1.58, R 1.87, S 1.94, T 2.7, V 1.86, W 2.75, Y 2.41
T19: A 2.07, C 2.34, D 2.87, E 2.29, F 2.2, G 2.62, H 2.42, I 1.94, K 2, L 2.74, M 2.31, N 2.31, P 1.74, Q 1.96, R 2.04, S 2.12, V 1.86, W 2.05, Y 1.92
V20: A 2.3, C 2.29, D 2.87, E 2.54, F 1.9, G 2.07, H 2.6, I 1.97, K 2.16, L 1.99, M 2.25, N 2.37, P 2.73, Q 2.65, R 1.77, S 2.07, T 2.09, W 3.44, Y 1.92
V21: A 2.01, C 2.49, D 2.71, E 3.15, F 1.96, G 1.97, H 2.12, I 1.99, K 2.01, L 2.54, M 2.08, N 2.36, P 2.22, Q 2.06, R 1.6, S 2.1, T 2.62, W 1.64, Y 2
E22: A 2.22, C 2.06, D 2.07, F 2.01, G 1.79, H 1.91, I 2.21, K 2.1, L 1.91, M 1.57, N 1.69, P 1.96, Q 1.64, R 1.75, S 1.92, T 1.79, V 1.69, W 2.11, Y 1.87
E23: A 1.81, C 3.71, D 2.45, F 1.71, G 2.13, H 1.99, I 2.24, K 2.27, L 2.19, M 2.02, N 1.73, P 2.36, Q 2.35, R 2.04, S 1.58, T 2.24, V 2.25, W 1.48, Y 1.71
P24: A 2.2, C 2.54, D 2.4, E 2.6, F 2.81, G 2.25, H 2.36, I 1.68, K 2.08, L 2.35, M 1.92, N 2, Q 2.03, R 2.19, S 2.22, T 2.38, V 2.46, W 2.84, Y 2.32
